From patent publication US20220064322A1 come the findings set out here.

The target of test [1] is human CD73 on the cell surface (293T/17-huCD73 cells) (human) (UniProt P21589). The test can be described thus: cell-based or functional assay.
Test [2] shares this target. The test can be described thus: flow cytometry on 293T/17-huCD73 cells. Background: A flow cytometer gives signals particle by particle.
Test [3] shares this target. The test can be described thus: flow cytometry on 293T/17-huCD73 cells, curve fit.
The target is the same in test [4]. The test is described as follows: flow cytometry on 293T/17-huCD73 cells, fluorescently labelled detection antibody, MFI.

Chain of human CD73 on the cell surface (293T/17-huCD73 cells) (human) (P21589 27-549): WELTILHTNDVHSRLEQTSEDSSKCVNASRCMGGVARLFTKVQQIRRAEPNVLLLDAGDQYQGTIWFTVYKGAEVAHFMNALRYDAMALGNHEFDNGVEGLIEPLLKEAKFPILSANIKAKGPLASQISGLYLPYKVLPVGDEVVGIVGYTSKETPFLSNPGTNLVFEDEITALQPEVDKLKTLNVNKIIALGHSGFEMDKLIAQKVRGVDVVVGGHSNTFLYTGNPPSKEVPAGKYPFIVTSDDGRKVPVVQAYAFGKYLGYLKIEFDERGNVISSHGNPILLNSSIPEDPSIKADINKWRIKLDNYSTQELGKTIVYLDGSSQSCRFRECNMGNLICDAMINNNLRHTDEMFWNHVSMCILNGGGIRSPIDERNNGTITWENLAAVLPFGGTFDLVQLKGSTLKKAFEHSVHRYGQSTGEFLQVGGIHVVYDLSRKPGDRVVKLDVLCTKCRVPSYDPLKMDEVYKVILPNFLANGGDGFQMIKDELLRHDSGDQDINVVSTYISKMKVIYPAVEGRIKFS

B1: 191C3A8B9 (antibody, mouse IgG1, kappa, V domains shown)
VH: QVQLKESGPGLVAPSQSLSITCTVSGFSLTNYGVHWVRQPPGKGLEWLGVIWAGGSTNYNSALMSRLSISKDNSKSQLFLKMNSLQADDTAMYYCARERGSSWGTMDYWGQGTSVTVSS
VL: QIVLTQSPAIMSASPGEKVTMTCSASSRVSYMHWYQQKSGTSPKRWIYDTSQLASGVPARFSGSGSGTSYSLTISSMEAEDAATYYCQQWSSNPYTFGGGTKLEMRR
In general, EC50 refers to the concentration needed to bring the measured effect to its halfway point. Read a low EC50 as higher potency in that assay. What is called EC50 (read off the curve) is the concentration giving half of the maximal effect. Higher therefore signals lower potency in that assay. Regarding B1, in test [1], the IC50, blockade of 5'exonuclease activity on 293T/17-HuCD73 cells was determined as 9 pM. This molecule showed a concentration giving a half-maximal response (EC50) in test [2] of 828 pM. Further, in test [3], the Bottom (fluorescence intensity) came out at 2.67 and the Top (fluorescence intensity) is 105. In test [4], this molecule came in with an EC50 (read off the curve) of 1000 pM.
